According to patent US20050186604A1:

Target: Myc transcription factor (UniProt P01106)
Assay: cell-based or functional assay

Sequence of HTLV-1 p30^II (HA) (P0C214 whole entry): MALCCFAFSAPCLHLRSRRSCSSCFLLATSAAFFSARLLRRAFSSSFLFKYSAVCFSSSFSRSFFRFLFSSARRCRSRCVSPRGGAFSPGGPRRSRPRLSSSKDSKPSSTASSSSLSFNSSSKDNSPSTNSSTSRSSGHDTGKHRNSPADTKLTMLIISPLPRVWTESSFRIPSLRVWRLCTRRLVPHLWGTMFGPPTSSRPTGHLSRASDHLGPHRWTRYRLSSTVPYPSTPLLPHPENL
Sequence of UniProt P01106 (P01106 16-454 limits assumed): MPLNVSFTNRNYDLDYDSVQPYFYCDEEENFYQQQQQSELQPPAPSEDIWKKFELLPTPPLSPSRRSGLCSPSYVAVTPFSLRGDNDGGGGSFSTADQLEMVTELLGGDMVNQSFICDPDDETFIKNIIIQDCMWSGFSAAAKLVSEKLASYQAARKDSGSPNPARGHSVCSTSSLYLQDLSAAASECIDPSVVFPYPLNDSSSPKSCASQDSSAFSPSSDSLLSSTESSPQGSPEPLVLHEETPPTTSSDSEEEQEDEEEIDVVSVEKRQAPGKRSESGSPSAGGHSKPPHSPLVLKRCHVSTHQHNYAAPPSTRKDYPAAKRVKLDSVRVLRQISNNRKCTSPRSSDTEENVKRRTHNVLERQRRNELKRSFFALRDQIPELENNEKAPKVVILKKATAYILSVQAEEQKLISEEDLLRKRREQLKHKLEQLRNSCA

HTLV-1 p30^II (HA)
trans-activation from the synthetic M4-tk-luc promoter (luciferase reporter, four tandem E-boxes): 13 fold
trans-activation from the synthetic M4-tk-luc promoter (luciferase reporter, four tandem E-boxes), higher p30^II concentrations: 5 to 7 fold
